Earlier results as cited in paper PMC9736027.

Target: Nrf2 (Homo sapiens) (UniProt Q16236)
Chain of UniProt Q16236 (Q16236 whole entry): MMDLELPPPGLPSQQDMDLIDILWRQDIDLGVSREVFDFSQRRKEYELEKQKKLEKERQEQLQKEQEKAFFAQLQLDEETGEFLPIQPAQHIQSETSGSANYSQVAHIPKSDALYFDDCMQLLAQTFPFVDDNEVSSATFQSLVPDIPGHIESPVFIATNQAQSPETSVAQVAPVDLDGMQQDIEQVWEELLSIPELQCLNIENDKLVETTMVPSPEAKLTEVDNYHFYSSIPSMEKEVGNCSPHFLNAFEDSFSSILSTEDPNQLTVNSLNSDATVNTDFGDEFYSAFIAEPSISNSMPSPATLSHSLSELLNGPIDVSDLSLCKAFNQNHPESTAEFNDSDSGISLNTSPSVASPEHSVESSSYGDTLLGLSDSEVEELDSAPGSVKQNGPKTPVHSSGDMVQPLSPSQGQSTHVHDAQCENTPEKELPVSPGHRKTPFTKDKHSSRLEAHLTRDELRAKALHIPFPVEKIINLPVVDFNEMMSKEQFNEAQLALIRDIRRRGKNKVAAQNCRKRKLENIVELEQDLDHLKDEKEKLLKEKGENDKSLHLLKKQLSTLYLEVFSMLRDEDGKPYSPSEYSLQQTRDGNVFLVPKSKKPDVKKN

Kd: 20 nM
Substance: Keap1 (from UniProt Q14145)
